{"source": "the DeepSol protein solubility set"}
{"assay": "soluble on expression in E. coli; label from the status in PepcDB or PDB records"}
{"sequence": "MGSDKIHHHHHHERNKTLYWGGALWSPPSNWNPFTPWNAVAGTIGLVYEPLFLYDPLNDKFEPWLAEKGEWVSNNEYVLTLRKGLRWQDGVPLTADDVVFTFEIAKKYTGISYSPVWNWLGRIERVDERTLKFVFSDPRYQEWKQMLINTPIVPKHIWENKTEEEVLQAANENPVGSGPYYVESWADDRCVFKKNGNWWGIRELGYDPKPERIVELRVLSNNVAVGMLMKGELDWSNFFLPGVPVLKKAYGIVTWYENAPYMLPANTAGIYINVNKYPLSIPEFRRAMAYAINPEKIVTRAYENMVTAANPAGILPLPGYMKYYPKEVVDKYGFKYDPEMAKKILDELGFKDVNKDGFREDPNGKPFKLTIECPYGWTDWMVSIQSIAEDLVKVGINVEPKYPDYSKYADDLYGGKFDLILNNFTTGVSATIWSYFNGVFYPDAVESEYSYSGNFGKYANPEVETLLDELNRSNDDAKIKEVVAKLSEILLKDLPFIPLWYNGAWFQASEAVWTNWPTEKNPYAVPIGWNGWWQLTGIKTLFGIEAK", "soluble on expression in E. coli": "soluble"}
{"sequence": "MGSDKIHHHHHHETENVNCGQVLAGDTAYLKTVTGEYRIKIAENESLNMSCEAVMDRILSRDHVLRPLENGVAFARVVYMDYELIEKHVEMSYHPQNSFCFAIDKKAAKEFKERMQAMASCLPNVLLLPGRFFKNPIHDLSVDSHGHNTNLAHYNCLRALINKPGWNYAILLQNHDLITKSVYELEKIFNWLGGANDVAIRPELGRLDKKHFKWDPMSLKLFRNESEIDPVILNTTLKFAKGAVQSSLSRAAVDWMTRTVDLTTFIDQWNHGTYGVDEQFTQAFQISDFLGMPGHFTDKCIKKGIITEGITRFAQWTHGDQSKCASKKSRHGICIMGIEHLSMMAKSEHLMFNKVLPLFDYSIIECTAE", "soluble on expression in E. coli": "not soluble"}
{"sequence": "MGSDKIHHHHHHGDDDDSSSSGNWQDLSKTYEGKSVNLVMGEVTVPVDGKSVVIAASSAEKASVTLNNIIPENKSVAIDAALKEADGTYTFTGESTVGDCVVSVNGTVKGGVASVVYTRKLTSSIVGNWSLKVGVEAIYANIVTGNSTIDDLVRMIKPAISNLIWGKVSAVNVNLPEDGIFDVSWRPIGASEDKGIGEITKMASIQYCVVDGKFMVAVDKNYVTVLTTLLQQAAGDKLEAAGISIDEIMKLLVDLGGYYGLPLNMKVDGSEATFYADKDLIVPVLTMIAPILKPMVPENYQQMVDMVLQLLPNAKTLEFGLNFTK", "soluble on expression in E. coli": "not soluble"}
{"sequence": "MGSDKIHHHHHHGETIDLGHDTTLDYSVTASYGAAVRTGTQSNTLLSPANINGDDGNRNFKRGDMTANRVSLLGEAHVKHDAFGALVRGSVFYDWAYSGTNSNNAPGTVNHSGPFNEFTGSARDYHESRAQLLDAYVYGAVPIESTQLSFKLGNQVVAWGESLFFANIAGAQGPADATKAFVPGAEVKDILLPVPQASVQWQVTPAFSLMGYYQFTFKPNQLFAPGSYFSTSDIVGPGAEFIIGPGFRIPRGPDISPSDWGQWGIGGRFRVFEDTEIGLYQLRYHDKNPSVVTSLFPTLQYQQKYFGGINLTGASFSTQLAGANVAGEVSYKDGVPMLVDVAGSPTASRGKALQAQLSAIYAIGPTFLANSQTLLGEIAYLHVIGVDSVMGFDKLSNTRNSAAFQVGWSLTYNNVFDGWDLTVPLTYAQQFSGNAAVAGAFGTLMGYGDKRASVGLTFKYLNNLELNLTYAAFIGGASIANRPLADRDYVAFNAKYSF", "soluble on expression in E. coli": "not soluble"}
{"sequence": "MGSDKIHHHHHHHEEADYSQEAHHLVEFGTLLQDDPNVIVPKYHADLSTRDVLAMDFVPSHPIDDLEAADQSERDRVATQLIALMMREVFSFQRVQSDPNFANFRWQPDTGRVVLLDFGATRVLSDNLVNAARQVLRPALDNDLTALANALRELGLLDDALPDQARKTILEMVALANEPMMDPDGFDFGNTSLVTELRTSGMALGQDRSIQSIPPIEVLYLQRKAAGLFLLATRLRARVDLRSLFKS", "soluble on expression in E. coli": "not soluble"}
{"sequence": "MGSDKIHHHHHHIRPIQRGKANAKVEFGAKIDCSLSEGVVDIERFDFTAFSEGQDFTETLDHYYDLHGHYPDEVLADTLYRNRENLKLCKDLGIRVCGPKLGRHPKNVDAAKRREDTDAENRRGTIERRFAFMKGTLGLDLVNTRTAESLAVKIDAAIVLSNALTLLRVFAIPILILAKFEGEAYRIRYKFTTRVEDMLA", "soluble on expression in E. coli": "not soluble"}
{"sequence": "MGSDKIHHHHHHKTLAANAVFATAFVKRDGSFGAAILSEAGKVLHAIDLPDRGHDVTFDPISKRSVVFARQPGTFAVVFDHSGRDAPQTVASISGRHFFGHGVFSPDGALLYATENDFDNAAGVIGIYDARAKFSRVGEFPTYGMGPHELLLLGDGRTMAVANGGIETHPDYGRAELNIATMKPSYVLIDRVTGDLIEKHELPASLHQLSIRHMDTDPSGTVWFGCQYRGPGTDRPLLVGRAVRGKELQLLDMPQDVLSGFRNYIGSVAANLSAGSVAVSSPEGNSLVVIDAASGRVVSSSALVEVCGLAPDGSGFIATTGAGEIIEGSGATRSEPDYVWDNHMLRIERA", "soluble on expression in E. coli": "not soluble"}
{"sequence": "MGSDKIHHHHHHKVSEAEAAKLGTSLTPMGGEMAASADGSIPAWNGGITAAPAGYKKGDHHPDPYSADKVEYTVTKANLEQYKSLLTPGQIKLFELYPDTFKMNVYKTQRSASAPQWVYDATKANASRAELVQGGNGVVGAAVGIPFPIPQNGLEAIWNHILRFRGVDIETQRNQAAPAKGGGYTLVELSEQLRFEYSQPDMTPEKLKENNTLALFKQVVTQPARLAGTALLVKETLDQEALPRQAWTYNTGQRRVRKAPNVAFDTPGTVSDGLRTTDDYDMFNGSPSRYNWELVGKKEILIPYNDYKLHSDKVKYDDILTPGHINPDLVRWEKHRVWEVKATLKDGMRHIYKTRVFFLDEDSWQVSATDMYDNRDELYRVAFAHGLNYYEVPAHWSTLEVFHDLQSRRYLAIGLDNEGSMYDFDAKLSASDFTPDALRREGVR", "soluble on expression in E. coli": "not soluble"}
{"sequence": "MGSDKIHHHHHHKYTLRFGHVLAPGEPYHQAFLKWAKAVEEKTNGDVRIEVFPSSQLGVEEDIIEQIRMGAPVGWNTDSARLGMYVKDIGVMNLAYFIDFMGAKTPEEAIEVLKKIKQSPTMQKWLKELEQRFGIKVLSFYWVQGYRHFVTNKPIRKPEDLNGLRIRTPGAPAWQESIRSLGAIPVAVNFGEIYTAVQTRAVDGAELTYANVYNGGLYEVLKYMSETGHFLLINFEIVSADWFNSLPKEYQKIIEEEMDKAGIEVSLKIMKELEEEYKQKCIEKGMAVIPASEIDKEAFMEKAKQAYKNLGLENALNQLIKEVKGE", "soluble on expression in E. coli": "not soluble"}
{"sequence": "MGSDKIHHHHHHLDLSPEDYYGSGNFWTKEAQVEGYMNGLHNNLRSSYTMFYVLGEARGGTSRYGTSSLGTSMSYSDPIKNNMLTKDNTGISNWYDLYGRIMQVNHFISEVSNGCSFLSESKKGFYLGQAYGLRALYYFMLYKTYGGVPLITDVKVLEGGKISADALYTERSTPETILKFIKSDLEASELNFGNNVTIDRAMWTKYATLMLKAEVYMWSAKVTTGDHQATGNSDLAIAQTALQPLINQFSLLDNFSEVFSKKANDEIIFAIRFKDGEATNWAGPFIYYGNIFEGQRYGRDGKLMQDTLDLKGTVGQFLHEYKKALWDSYDDEDMRRDATFMDHYGSAQKEGFGIAMKKGIGSVNSNNQRIFDTDIIVYRYADVLLMMAEIENALSGKCANYVNEVRKRAYGKNWHPQFAYTDGSYADNELTILHERDKEFVWEGKRWFDVVRMHDANGKSLAFSVAANYPNNETPDERVPLIKESEAHKLLWPIDVNTLNNDPKLEQTPGYDK", "soluble on expression in E. coli": "not soluble"}
{"sequence": "MGSDKIHHHHHHLGGGGIRPSHLLADEGGGPPYRPPAGRPVPSVPALMKLNAIEAGSAAADRVPLLILHGLLGSARNWGAVVKALGESRRVLALDLPNHGSSPWTEIMDYPFMARELASVIEHLGGRAAIMGHSMGGKAAMTLALSRPELVERLVVVDIAPVSYSHTFAPYIKAMRGVPLGEVSSRGEVEAALAGAIPDKGVRAFLMQNLEGGAGGYRWRPNLAVLGAHMDDILAFPHFPDDTAFQGPTLFVAGETSDYIRPAHEDVIAQFFPKAESVEIPGAGHWVHADNPSAFMSAIGSFL", "soluble on expression in E. coli": "not soluble"}
{"sequence": "MGSDKIHHHHHHLISTANITMQFGPEPLFENISAQFGHGNRYGLIGANGCGKSTFMKILSGALAPTSGNVSITPGLKVGNLSQDQFAFEQHSVIDTVIMGDMKLWKVKQEREAIYAKPDMTDEDGMRVGDLESEFAEMDGYSAESRAGEILIEAGIDESMHFGLMQQVPPGKKLRVLLAQALFANPDILLLDEPTNNLDIHTISWLETELNKRKCTMIIISHDRHFLNAVCTHMADIDYGELRIYPGNYEFFLAQSSLIREQLLAGNAKKSAEIDELQDFVNRFGANASKAKQASSRAKKMDKIKLDDVKSSSRITPSIRFEAGKKMHRQALILEGLGHGFDEGMLFTGGDLILEAGAKLAIIGENGVGKTTLLRCLVNELSHKEGVVKWSENAAVGYCPQDSSADFDNDLTLMDWMSQWRLPKHNDLMVRGMLGRLLFTEDDANKKARNCSGGEKNRLLFGKLMMQDVNVLIMDEPTNHMDMEAIEALNNALKDFEGTLIFVSHDREFVSSLATRVIDIKDKKLINFQGSFDEYLASQSEAQKIA", "soluble on expression in E. coli": "not soluble"}
{"sequence": "MGSDKIHHHHHHLNTTLSEYSIENLYGLYNHSLKFNDGESIAILHGPNGVGKTALLRSITYLFNSDFSSLSKIPFSRLFAKLSDNTEIIVTRKGVTKEQLLKHSQELHKISIEIKSKDKTTTSFSLNEAQLRPELLPPWIVLSDDGSYIDERNGMLFPEEFLHQSLFGKNKQKEIRNRETATQILEKIKVHFVETNRLYRSNSDTTWKRKKEKEMVASVDECAKHLVVLISTALKDYGKKSQELDQSFPHRFISEPIAQMSLDKLKTRLNELASQLKKLRKIGLLDAEGIQPFDPESLDKVEKSKLEIMNLYVRDSEQKLAVFDNLSKRIQVLLDGLNSKFKNKNIQLNKERGLIARGPNDFDLSLSDLSSGEQHEIVLLYELLFKVAPNTLVLIDEPELSLHMTWQKSFLPELLSISREIGFSSILATHSPFIVGDRYDLLISLDTKNNNDSME", "soluble on expression in E. coli": "not soluble"}
{"sequence": "MGSDKIHHHHHHLRDATSQIGQTVVGEAVRLVSFRPLGNLANHTLLMAAIVMMQSKHPDQFEKSNEILDTLMEREMHHPVVLTWAGIWHVMRVQKGLSGDRRKSTLMAENLANAALAQDPAFSLAHTLKGMIASYLTFDFDNAQYSYDKALQDNPNEALALLLKGATRAMQNRPDEGVVLTEAARKLTPLGPQRYYFDSLAAAVSLAARDYNRAIELADRSLEENDSYPSTLRTKAIALQMSGRSDEARHVVESLMKVTPDFSLSRYMQEHAAGFTPSGPDWASALREAGVPE", "soluble on expression in E. coli": "not soluble"}
{"sequence": "MGSDKIHHHHHHLSQSTPDLLTKQLRYTDYLRANGIPFMKCVKPTDEALFTTIMDSIGQEWTCCLFHWIDGHHVTANTEQTAARMGQLARQLHDVSLHEQEIQFPFIDHTVTYQRWLGDLQRLSASRMPEPVQNSFQEYLTLAQQHLDTARLPKSSSLQPVISTDLNSLNVLWDSDQHIVGIVDHEHIGATDRVQDLAWLIKWYARTEGIDSHDVSGRLAKSLLTHYNSPTLLVPKEDPRLASLLWLSGCMNLHFVERTKQLAFDAENNPVGYDQFQLHLQTYRLRGERLVGLLT", "soluble on expression in E. coli": "not soluble"}
{"sequence": "MGSDKIHHHHHHLVPPDYQDPPSDFTAEVEAGLQLNTGNNESKNFNSRAYLTYDTPKTRQEGTFKVYYAADGTETTSEKYDLFLQSSYKLNRGYVFGRGEFTWDDFGSFTEIRTLSTGYGFDLIKSYKTKLSLEAGPGYRYDMPRATLSDPEPRANREVILRTAARYSVKLQEYTSLNADVTAETGLDNNTLTLDMSYKNTFLQDWAFKIGMNVRYTQDVPQDSQRTDTTTTFNLLYTFQ", "soluble on expression in E. coli": "not soluble"}
{"sequence": "MGSDKIHHHHHHLYINKRPIFLVHGLWNNPKLFEKLIKKINEDDYELYRPHLPHKYGKTSLKRLALDLDSKIEELVGPEIEIDIVGFSMGGLISRFWLQNHDGFLRTKRFFSIGTPHFGTYTAQMIPSFLMPGIAEMKRGSRLLSLLNNDLTSLEKVECTSFFTKWDLMSFPGWQAKLSIGESYHLPVLTHKELITNSSSLDILVKKIFKNS", "soluble on expression in E. coli": "not soluble"}
